Results from PMC8355051 (Nature biotechnology, 2021).

Key:
[1] = molecular target: Biotinylated Spike RBD protein (SARS-CoV-2, UniProt P0DTC2, biotin); assay: BLI
[2] = molecular target: Spike-RBD-25aa-SmBiT-12xHisTag (SARS-CoV-2, UniProt P0DTC2); assay: split reporter
[3] = molecular target: Spike-RBD-15aa-LgBiT-12xHisTag (SARS-CoV-2, UniProt P0DTC2); assay: split reporter

Measured: binding result

B1: C105 IgG (antibody, V domains shown)
VH: QVQLVESGGGLIQPGGSLRLSCAASGFTVSSNYMSWVRQAPGKGLEWVSVIYSGGSTYYADSVKGRFTISRDNSKNTLYLQMNSLRAEDTAVYYCARGEGWELPYDYWGQGTLVTVSS
VL: QSALTQPPSASGSPGQSVTISCTGTSSDVGGYKYVSWYQQHPGKAPKLMIYEVSKRPSGVPDRFSGSKSGNTASLTVSGLQAEDEADYYCSSYEGSNNFVVFGGGTKLTVL
binds: all assays above
